Laboratory results as given in patent US20240002497A1 (Merck Sharp & Dohme, published 2024).
Read-outs that look alike come from different tables or passages of the source. Blank lines part the entries; values can stand above or below the binder they belong to.

Key:
rhNav1.7α + β1-β2-β3 [1] = target: rhNav1.7α + β1-β2-β3 (rhesus monkey); test: cell-based or functional assay
huNav1.7α + β1 [2] = target: huNav1.7α + β1 (human); test: cell-based or functional assay
huNav1.7α + β1-β2-β3 [3] = target: T1, huNav1.7α + β1-β2-β3 (human, UniProt Q15858 1-1988; A5A6L6 19-218; O60939 30-215; Q2KI11 23-215); test: competition FACS vs EC25 of 275B05(N93R), CHO FlpIn
T1 construct: also called huNav1.7-beta1-beta2-beta3; huNav1.7-β1-β2-β3

rhNav1.7α + β1-β2-β3 [4] = target: T2, rhNav1.7α + β1-β2-β3 (rhesus monkey); test: as above
T2 construct: also called rhNav1.7-beta1-beta2-beta3; rhNav1.7-β1-β2-β3

[5] = target: T3, huNav1.7α + β1-β2-β3 (human Nav1.7α co-expressed with Navβ1, Navβ2 and Navβ3) (human); test: binding FACS; minus = lower activity than reference
T3 construct: also called huNav1.7-beta1-beta2-beta3

[6] = target: T4, muNav1.7α (murine Nav1.7α) (murine, UniProt Q62205 1-1984); test: as above
T4 construct: HEK Jmp-In cells

[7] = target: T5, rhNav1.7α + β1-β2-β3 (rhesus Nav1.7α co-expressed with Navβ1, Navβ2 and Navβ3) (rhesus monkey); test: binding FACS; plus = higher activity than reference
T5 construct: also called rhNav1.7-beta1-beta2-beta3

[8] = target: T4, muNav1.7α (murine Nav1.7α); test: as above
[9] = target: T6, huNav1.7α + β1 (human Nav1.7α co-expressed with Navβ1) (human, UniProt Q15858 1-1988; Q07699 19-218); test: cell-based or functional assay
[10] = target: T7, huNav1.7α (human Nav1.7 alpha subunit, expressed without β subunits) (human, UniProt Q15858 1-1988); test: binding FACS, HEKa cells
T7 construct: also called HEK293 human Nav1.7α; HEKa Nav1.7α

[11] = target: T7, huNav1.7α (human Nav1.7 alpha subunit, …); test: binding FACS, HEKa cells; remark: listed apart in the source
[12] = target: T6, huNav1.7α + β1 (human Nav1.7α …); test: binding FACS, HEKa/β1 cells
[13] = target: T6, huNav1.7α + β1 (human Nav1.7α …); test: binding FACS, HEKa/β1 cells; remark: listed apart in the source
[14] = target: T8, huNav157 chimera 14 + β1-β2-β3 (human); test: binding FACS, HEK FlpIn cells
T8 construct: Chimera of huNav1.7α (extracellular loops and transmembrane helices) and huNav1.5α (intracellular loops); also called Nav157ch14-β1-β2-β3; huNav157 chimera 14-beta1-beta2-beta3

huNav157 chimera 14 [15] = target: T9, huNav157 chimera 14 (human); test: binding FACS, HEK FlpIn cells
T9 construct: Chimera without β subunits; also called Nav157ch14

[16] = target: T8, huNav157 chimera 14 + β1-β2-β3; test: binding FACS, HEK FlpIn cells; remark: listed apart in the source
huNav157 chimera 14 [17] = target: T9, huNav157 chimera 14; test: binding FACS, HEK FlpIn cells; remark: listed apart in the source
[18] = target: T7, huNav1.7α (human Nav1.7 alpha subunit, …); test: binding FACS, huNav1.7α without β; minus = lower than reference
[19] = target: T7, huNav1.7α (human Nav1.7 alpha subunit, …); test: binding FACS, huNav1.7α without β; minus = weaker than reference
[20] = target: T10, rhNav1.7α + β1-β2-β3 (rhesus Nav1.7α co-expressed with Navβ1, Navβ2 and Navβ3 on cells) (rhesus monkey (α subunit); β subunits …); test: cell-based or functional assay
[21] = target: huNav1.7α + β1 on HEK cells (human, UniProt Q15858 1-1988; Q07699 19-218); test: cell-based or functional assay
[22] = target: T11, huNav1.7α + β1-β2-β3 (human Nav1.7α co-expressed with human Navβ1, Navβ2 and Navβ3 on cells) (human); test: binding FACS, CHO FlpIn cells
T11 construct: also called huNav1.7-beta1-beta2-beta3; CHO FlpIn huNav1.7α + β1-β2-β3
In short: (§1)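 FLAG3-tagged ISVD, 30 min, 4° C, FACS buffer (PBS/10% FBS/NaN₃); 1×10^5 cells/well; detection murine anti-Flag; PI 1 μg/mL live gate; washes between steps.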

[23] = target: T10, rhNav1.7α + β1-β2-β3 (rhesus Nav1.7α …); test: binding FACS, CHO FlpIn cells
In short: as §1

[24] = target: T11, huNav1.7α + β1-β2-β3 (human Nav1.7α …); test: binding FACS, CHO FlpIn cells; remark: listed apart in the source
Protocol: (§2) Binding of the ISVDs to cell-expressed Nav1.7α was detected via murine anti-Flag (Sigma, catalog #F1804). Briefly, cells were resuspended in FACS buffer (PBS, 10% FBS, NaN₃) and transferred to a 96-well V-bottom plate at 1×10^5 cells/well. Purified FLAG3-tagged ISVD was diluted in FACS buffer and added to the cells for 30 minutes at 4° C. […] Prior to the read-out, the samples were resuspended in 1 μg/mL propidium iodide (Sigma, catalog #P4170) to exclude dead cells. Between each step, the cells were centrifuged for 5 minutes at 200 grams and washed with 100 μL/well FACS buffer.

[25] = target: T10, rhNav1.7α + β1-β2-β3 (rhesus Nav1.7α …); test: binding FACS, CHO FlpIn cells; remark: listed apart in the source
Protocol: as §2

rhNav1.7α + β1-β2-β3 [26] = target: T2, rhNav1.7α + β1-β2-β3; test: cell-based or functional assay; remark: listed apart in the source
huNav1.7α + β1 [27] = target: huNav1.7α + β1 (human); test: cell-based or functional assay; remark: listed apart in the source
rhNav1.7α + β1-β2-β3 [28] = target: T2, rhNav1.7α + β1-β2-β3; test: cell-based or functional assay; remark: listed apart in the source
huNav1.7α + β1 [29] = target: huNav1.7α + β1 (human); test: cell-based or functional assay; remark: listed apart in the source
huNav1.7α + β1-β2-β3 [30] = target: T1, huNav1.7α + β1-β2-β3; test: binding FACS, CHO FlpIn
In short: as §1

rhNav1.7α + β1-β2-β3 [31] = target: T2, rhNav1.7α + β1-β2-β3; test: binding FACS, CHO FlpIn
In short: as §1

muNav1.7α [32] = target: T12, muNav1.7α (murine, UniProt Q62205 1-1984); test: binding FACS, HEK JmpIn
T12 construct: HEK JmpIn cells; also called murine Nav1.7α
In short: as §1

huNav1.7α + β1-β2-β3 [33] = target: T1, huNav1.7α + β1-β2-β3; test: binding FACS, CHO FlpIn; remark: listed apart in the source
Protocol: as §2

rhNav1.7α + β1-β2-β3 [34] = target: T2, rhNav1.7α + β1-β2-β3; test: binding FACS, CHO FlpIn; remark: listed apart in the source
Protocol: as §2

muNav1.7α [35] = target: T12, muNav1.7α; test: binding FACS, HEK JmpIn; remark: listed apart in the source

QPatch electrophysiology IC50 [M], HEK cells (rhNav1.7α + β1-β2-β3 [1]): 1.8e-08 M
QPatch electrophysiology IC50 [M], HEK cells (huNav1.7α + β1 [2]): 2.1e-08 M
IC50 (huNav1.7α + β1-β2-β3 [3]): 30 nM
IC50 (rhNav1.7α + β1-β2-β3 [4]): 16 nM
B1: F010301452 (VHH)
VHH: EVQLVESGGGLVQPGGSLRLSCAASGPVFNINSMAWYRRAPGKQRELVAYSTPGWDWNYADSVKGRFTISRDNAKRVYLQMNSLTPEDTAVYYCRWLLQPSIYDISRTYWGQGTLVTVSS
notes: Tagless version of F010300659 by its description; also called F0103275B05(S27P, I28V, S50Y, N53P, G55W, S56D, T57W, N93R, A94W)

EC50 fold change compared to reference [5]: -2 fold
EC50 fold change compared to reference [6]: -4 fold
B2: F010301877 (VHH)
VHH: EVQLVESGGGVVQPGGSLRLSCATTSRAFIRDVFTGWYRRVPGKERELVARIYNGGNTNYADFAKGRFTISRDNAKNMVYLQMNSLRPEDTALYYCLFSGTINTGREYRSGDYWGQGTLVTVSS
notes: also called F0103464B09(L11V, S68T, K76N, T79Y, R81Q, S82aN, N82bS, K83R, G88A, V89L); K76N

EC50 fold change compared to reference [7]: 3 fold
EC50 fold change compared to reference [8]: 3 fold
B3: F010301893 (VHH)
VHH: EVQLVESGGGVVQPGGSLRLSCATTSRAFIRDVFTGWYRRVPGKQRELVARIYNGGNTNYADFAKGRFTISRDNAKKMVYLQMNSLRPEDTALYYCLFSGTINTGREYRSGDYWGQGTLVTVSS
notes: also called F0103464B09(L11V, E44Q, S68T, T79Y, R81Q, S82aN, N82bS, K83R, G88A, V89L); E44Q

IC50 [M], electrophysiology on HEK huNav1.7α + β1 cells [9]: 3.2e-08 M
Bmax [10]: 100%
EC50 [10]: 1.9 nM
EC50 [11]: 1.9 nM
EC50 [12]: 2 nM
EC50 [13]: 2 nM
EC50 [14]: 2.3 nM
Bmax (huNav157 chimera 14 [15]): 100%
EC50 (huNav157 chimera 14 [15]): 2.7 nM
EC50 [16]: 2.3 nM
EC50 (huNav157 chimera 14 [17]): 2.7 nM
B4: F010302391 (VHH)
VHH: EVQLVESGGGVVQPGGSLRLSCAASGRILRIGYMRWYRQAPGKQREFVARITGGSATGYADSVKGRFTISRDNAKNTVYLQMNSLRPEDTALYYCEALVTASVRGGSIHSGTYWGQGTLVTVSS
notes: also called F0103387G05(L11V, A14P, D23A, H37Y, G40A, A41P, D53G, D54G, D58G, N82bS, N83R, V89L, R105Q)-FLAG3-HIS6

Bmax [10]: 25%
EC50 [10]: 89 nM
EC50 [12]: 3.2 nM
EC50 [14]: 3.4 nM
Bmax (huNav157 chimera 14 [15]): 30%
EC50 (huNav157 chimera 14 [15]): 210 nM
Bmax fold change compared to reference [18]: -4 fold
EC50 fold change compared to reference [19]: -20 fold
B5: F010301648 (VHH)
VHH: EVQLVESGGGVVQPGGSLRLSCDASGRILRIGYMRWHRQGAGKQREFVARITDDSATDYADSVKGRFTISRDNAKNTVYLQMNSLRPEDTALYYCNALVTASVRGGSIHSGTYWGQGTLVTVSS
notes: also called F0103387G05(L11V, A14P, N82bS, N83R, V89L, E93N, R105Q); E93N

IC50 [M], in vitro electrophysiology, HEK rhNav1.7α + β1-β2-β3 [20]: 3e-09 M
IC50 [M], in vitro electrophysiology, HEK huNav1.7α + β1 [21]: 2.2e-08 M
Bmax [22]: 100%
EC50 [22]: 6.8 nM
Bmax [23]: 100%
EC50 [23]: 4.5 nM
EC50 [24]: 6.8 nM
EC50 [25]: 4.5 nM
B6: F010302383 (VHH)
VHH: EVQLVESGGGVVQPGGSLRLSCAASGPVFNINRMAWYRQAPGKQRELVAYVTPTGDISYADSVKGRFTISRGGSKRVYLQMNSLRPEDTALYYCRALLQPSSYSGTRTYWGQGTLVTVSS
notes: also called F0103387G04(L11V, A12V, K33R, R39Q, S50Y, S56D, T60A, D72G, W78V, S79Y, T83R, V89L, N93R, D99S, N100cG) + FLAG3-HIS6

IC50 [M], electrophysiology, HEK cells (rhNav1.7α + β1-β2-β3 [26]): 3.6e-08 M
IC50 [M], electrophysiology, HEK cells (huNav1.7α + β1 [27]): 1.1e-08 M
Qpatch IC50 (rhNav1.7α + β1-β2-β3 [28]): 166 nM
Qpatch IC50 (huNav1.7α + β1 [29]): 7 nM
Bmax (huNav1.7α + β1-β2-β3 [30]): 100%
EC50 (huNav1.7α + β1-β2-β3 [30]): 4.2 nM
Bmax (rhNav1.7α + β1-β2-β3 [31]): 96%
EC50 (rhNav1.7α + β1-β2-β3 [31]): 9.3 nM
Bmax (muNav1.7α [32]): 18%
EC50 (muNav1.7α [32]): 48 nM
EC50 (huNav1.7α + β1-β2-β3 [33]): 4.2 nM
EC50 (rhNav1.7α + β1-β2-β3 [34]): 9.3 nM
EC50 (muNav1.7α [35]): 48 nM
B7: F010302363 (VHH)
VHH: EVQLVESGGGVVQPGGSLRLSCAASHRAFIRDVFTGWYRQAPGKQRELVARIYEGGNTQYADSVKGRFTISRDNAKKTVYLQMNSLRPEDTALYYCLFSGTISTGREYRSGDYWGQGTLVTVSS
